The values below come from US20230073007A1 (OPTOLANE TECHNOLOGIES, published 2023).

T1: CRP (UniProt P02741 19-224)
T1 construct: also called antigen CRP
T1 sequence (looked up): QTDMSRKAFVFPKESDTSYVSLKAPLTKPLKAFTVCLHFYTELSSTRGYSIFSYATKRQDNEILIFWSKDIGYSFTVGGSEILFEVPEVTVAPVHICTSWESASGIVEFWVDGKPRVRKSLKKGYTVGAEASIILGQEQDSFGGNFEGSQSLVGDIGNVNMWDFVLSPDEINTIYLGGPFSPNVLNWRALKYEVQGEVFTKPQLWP

B1: switching binder of SEQ ID NO. 3 (L1) (peptide)
peptide: TYLEWYPQKPGQSPKLLIYK
modifications: also: fluorescence label in fluorescence assays, dye and place not given here
notes: also called PEPTIDE 3
B2: switching binder of SEQ ID NO. 2 (H2) (peptide)
peptide: VYYCAREPTGTGIYFDVWGK
modifications: also: fluorescence label in fluorescence assays, dye and place not given here
notes: also called PEPTIDE 2
B3: switching binder of SEQ ID NO. 4 (L2) (peptide)
peptide: VYYCFQGSHVPFTK
modifications: also: fluorescence label in fluorescence assays, dye and place not given here
notes: also called PEPTIDE 4

For test [1], the target named is T2, anti-HRP antibody.
T2 construct: also called anti-HRP antibody 10
The experiment in a line: fluorescence of labelled peptide (10 µM) on anti-HRP antibody fixed on a solid support, before (A) and after (B) HRP 10 µg/ml; C = fluorescence in the solution.
Protocol: (§1) 1 to 4 were each treated at a concentration of 10 μM (100 μl/well) for 2 hours. At this time, after measuring the fluorescence of the bottom, the antigen HRP as an analyte for an IgG antibody of rabbit was treated at a concentration of 10 μg/ml for 1 hour. […] 1 to 4 were each treated at a concentration of 20 μM (100 μl/well) for 2 hours. At this time, after measuring the fluorescence of the bottom, the antigen HCG as an analyte for an IgG antibody of a mouse was treated at a concentration of 100 μg/ml for 2 hours.

Test [2] addresses T3, antibody 10 immobilized by the support 30 (FIG. 7A; antibody not identified).
T3 construct: also called the antibody 10
The experiment in a line: fluorescence of labeled peptide vs peptide concentration on immobilized antibody (FIG. 7A).

In test [3] the target is anti-HBsAg antibody. The experiment in a line: fluorescence of labelled peptide (20 µM) on anti-HBsAg antibody fixed on a solid support, before (A) and after (B) HBsAg 10 µg/ml; C = fluorescence in the solution.
Test [4] concerns the target T2, anti-HRP antibody. The experiment in a line: SPR, anti-HRP antibody immobilized on gold chip, peptide at 10 µM.
Protocol: (§2) Carbodiimide/N-Hydroxysuccinimide (EDC/NHS, 0.4 M/0.1 M) was mixed in a 1:1 ratio and treated for 10 minutes to activate functional groups. […] Thereafter, it was used after blocking with an ethanolamine concentration of 1 M for 10 minutes. All of the switching binders 100 were treated by incubation for 30 minutes using two concentrations of 10 and 20 μM, respectively. The SPR signal can be measured as an average value by repeating the routine of measuring the SPR signal for 3 minutes while the solution is stopped after flowing 1% Tween-20 washing solution for 1 minute three times.
The target in test [5] is B2. The experiment in a line: FRET between the labelled peptides L1 and H2, L1 peptide concentration varied (linear axis, 0-10 µM).
For test [6], the target named is T3, antibody 10 immobilized by the support …. The experiment in a line: fluorescence of labelled peptide on an antibody fixed on a support, peptide concentration varied (log axis, 0.1-100 µM).
For test [7], the target named is T2, anti-HRP antibody. The experiment in a line: SPR, anti-HRP antibody immobilized on gold chip, peptide at 20 µM.
Protocol: as §2
The target of test [8] is T1, CRP. The experiment in a line: fluorescence of labelled peptide (20 µM) on protein coated at 100 µg/mL on a solid support.
Test [9] has as its target protein A (UniProt P38507 37-477). The description is as above.
Test [10] addresses anti-CRP antibody. The experiment in a line: fluorescence of labelled peptide (20 µM) on anti-CRP antibody fixed on a solid support, before (A) and after (B) antigen 10 µg/ml (CRP by paragraph 170; paragraph 172 writes HRP); C = fluorescence in the solution.
Protocol: 1 to 4 were each treated at a concentration of 20 μM (100 μl/well) for 2 hours. At this time, after measuring the fluorescence of the bottom (A), the antigen HRP as an analyte for an IgG antibody of rabbit was treated at a concentration of 10 μg/ml for 1 hour. […] 1 to 4 were each treated at a concentration of 20 μM (100 μl/well) for 2 hours. At this time, after measuring the fluorescence of the bottom (A), the antigen HBsAg as an analyte for an IgG antibody of a goat was treated at a concentration of 10 μg/ml for 1 hour.
Test [11] addresses anti-hCG antibody. The experiment in a line: fluorescence of labelled peptide (20 µM) on anti-hCG antibody fixed on a solid support, before (A) and after (B) hCG 100 µg/ml; C = fluorescence in the solution.
Protocol: as §1
In test [12] the target is B1. The experiment in a line: FRET between the two peptides (FIG. 5E).
The target in test [13] is B3. The experiment in a line: FRET between the labelled peptides H1 and L2, H1 peptide concentration varied (linear axis, 0-10 µM).

No end group written: not given here.

As to B1, the results for the “percent printed over the arrow from bar A to bar B (residual bound peptide after antigen; agrees with B as percent of A)” value in test [1], in [3] and in test [10] were 12.8%, 51.4% and 51.4%, respectively. The Kd in [2] worked out at 6.62 µM. For the same molecule, the SPR signal stood at 25.3 RU in [4] and 40.4 RU in test [7]. Besides, the values for the binding result in test [5], in test [8] and in [9] were “binds”, “no binding (tested: 20 µM)” and “no binding (tested: 20 µM)”, respectively. Moreover, the “EC50 (read off the curve)” value in [6] is approximately 6 µM.

Consider B2, for which the “percent printed over the arrow from bar A to bar B (residual bound peptide after antigen; agrees with B as percent of A)” value in test [1] was 14.8%; in test [3] it was 60.5%; in test [11], 11.5%; in test [10], 60.5%. Binding in test [2] was put at a Kd of 19.4 µM. Besides, the SPR signal in test [4] worked out at 51.5 RU; in [7], 192 RU. The binding result in test [8] is given as “no binding (tested: 20 µM)”; in test [12], “binds”.

B3: the “percent printed over the arrow from bar A to bar B (residual bound peptide after antigen; agrees with B as percent of A)” value in test [1] is 25.5%; in test [3], 55.1%; in test [11], 9.3%; in [10], 55.1%. This molecule also yielded an equilibrium dissociation constant (Kd) in test [2] of 6.68 µM. Further, the SPR signal was found to be 125 RU in test [4] and 418 RU in [7]. Besides, the binding result in test [8] and in [9] was “no binding (tested: 20 µM)” throughout.

SYWIHWVKQRPGQGLEWIGE (also: fluorescence label in fluorescence assays, dye and place not given here, also called PEPTIDE 1) [switching binder of SEQ ID NO. 1 (H1)]: the “percent printed over the arrow from bar A to bar B (residual bound peptide after antigen; agrees with B as percent of A)” value in test [1] turned out to be 12.3%; in test [3] it was 73.2%; in test [11], 34.4%; in test [10], 73.2%. In addition, the affinity in [2], expressed as Kd, was 1.42 µM. Moreover, the figures for the SPR signal in test [4] and in test [7] were 34.4 RU and 121 RU, respectively. The binding result in [8] is recorded as “no binding (tested: 20 µM)”; in test [9] it was “no binding (tested: 20 µM)”; in test [13], “binds”.
